Results: US20250136720A1 (Boehringer Ingelheim, published 2025)
Numbering of substitutions follows the chain as printed. Names may count otherwise. One block for each binder: values may come before it.

Target: T1, Human CD137 on Jurkat cells (human, UniProt Q07011 24-255)
T1 construct: whole, on cells; also called full-length human CD137-expressing Jurkat cell line; NF-kB-Luc2/4-1BB Jurkat
Assay: flow cytometry, Jurkat cells;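 further: binding of antibody-containing supernatants to NF-kB-Luc2/4-1BB Jurkat cells, detected by flow cytometry with a PE-labelled anti-human IgG-Fc secondary antibody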
Experimental: Briefly, HTP supernatants containing recombinant IgG1 (KO) antibodies, were assayed by flow cytometry for binding to the NF-kB-Luc2/4-1BB Jurkat cell line. […] The cells were washed x3 with staining buffer. A Goat F(ab′)2 anti-human IgG-Fc PE secondary antibody was added to the cells and the plate was incubated for 30 min at 4° C. The cells were wash ×3 with staining buffer.

B1: CD137 #A45 (antibody, human IgG1, V domains shown)
VH: QVQLVQSGAEVKKPGASVKVSCKASGYIFTNYPMHWVRQAPGQRLEWMGWSNAGIGNTKYSQDFQGRVTITRDTSANTSYMELSSLRSEDMAVYYCAREGVTGAFDYWGQGTLVTVSS
VL: DIVMTQSPLSLPVTPGEPASISCRSSQSLLHSNGFNYLDWYLQKPGQSPQLLIFLGSIRASGVPDRFSGSESGTDFTLKISRVEADDVGIYYCMQPLQIPYTFGQGTKLEIK
notes: human IgG1 KO (L234A/L235A)/kappa chimeric IgG
binding result: binds

B2: CD137 #A57 (antibody, human IgG1, V domains shown)
VH: B1 VH with A24T, I28T, N31S, I55N, D63E, I70L, N77S, S79A, Y80F, V101L
VL: not shown
notes: as for B1
binding result: binds

B3: CD137 #B12 (antibody, human IgG1, V domains shown)
VH: QVQLVQSGAEVKKPGASVKVSCKASGYTFTTYPMHWVRQAPGQRLEWMGWSNAGIGNTKYSQEFQDRITISRDTSASTVYMELSSLRSEDMAVYYCAREGVAGGFDIWGQGTMVTVSS
VL: B1 VL with F35Y, D39N, F54Y, D86E, I90V
notes: as for B1
binding result: binds

B4: CD137 #B10 (antibody, human IgG1, V domains shown)
VH: B1 VH with I28T, I55S, T69S, N77S, S79A, R87K, V93I, T102A, Y107I, L113V
VL: B1 VL with S28R, D39G, F54Y, I58H, E71G, D86E, I90V
notes: as for B1
binding result: binds

B5: CD137 #A46 (antibody, human IgG1, V domains shown)
VH: B1 VH with V5A, I28T, T30S, N31S, Y32F, D63E, N77S, S79A, V101L
VL: DIVMTQSPLSLPVTPGEPASISCRSSQSLLHSNGYNYLGWHLQKPGQSPQLLIYLGSYRASGVPDRFSGSGSGTDFTLKISRVEAEDVGVYYCMQPLQIPLTFGGGTKVEIK
notes: as for B1
binding result: binds

B6: CD137 #B9 (antibody, human IgG1, V domains shown)
VH: QVQLVQSGAEVKKPGASVKVSCKASGYTLTNFPMHWVRQAPGQRLEWMGWTNAGNGNTKYSQELQGRVTMTRDTSASIAYMELSSLRSEDMGVYYCAREGLTGAFDYWGQGTLVTVSS
VL: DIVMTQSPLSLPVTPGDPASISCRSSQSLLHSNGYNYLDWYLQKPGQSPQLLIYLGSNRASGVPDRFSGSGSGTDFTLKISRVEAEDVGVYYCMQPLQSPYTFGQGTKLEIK
notes: as for B1
binding result: binds

B7: CD137 #B20 (antibody, human IgG1, V domains shown)
VH: EVKLVESEGGLVQPGSSMKLSCTASGFTFSDFYMAWVRQVPEKGLEWVANINYDGSSTYYLDSLKSRFIISRDNARNILYLQMSSLKSEDTATYYCAREGDEGWYFDVWGAGTTVTVSS
VL: DIVMTQSHKFMSTSVGDRVSITCKASQDVSTAVAWYQQKPGQSPKLLIYSASYRYTGVPDRFTGSGSGTDFTFTISSVQAEDLAVYYCQQHYSNPWTFGGGTKLEIK
notes: as for B1
binding result: binds

B8: CD137 #B21 (antibody, human IgG1, V domains shown)
VH: B7 VH
VL: B7 VL
notes: human IgG1 KO (L234A/L235A)/kappa chimeric IgG; also called CD137 #1; B21 parent
binding result: binds

B9: CD137 #A49 (antibody, human IgG1, V domains shown)
VH: QVQLQESGPGLVKPSETLSLTCTVSGGSISSYYWSWIRQPPGKGLEWIGYIYYSGSTNYNPSLKSRVTISVDTSKNQFSLKLSSVTAADTAVYYCARDQSGGGSFQHWGQGTLVTVSS
VL: EIVMTQSPLSLPVTPGEPASISCRSSQSLLYSNGYNHLDWYLQKPGQSPQLLIYLGSNRASGVPDRFSGSGSGTDFTLKISRVEAEDVGVYYCMQALQTPPTFGQGTKLEIK
notes: human IgG1 KO (L234A/L235A)/kappa IgG; also called CD137 #7; A49 Parent
binding result: binds

B10: CD137 #B3 (antibody, human IgG1, V domains shown)
VH: DVQLVESGGDLVQPGGSRKLSCAASGFTFSSFGMHWVRQAPERGLEWVAYISSGSSTIYYADTVKGRFIISRDNPKNTLFLQMTSLRSEDTAMYYCARDWVDYWGQGTSVTVSS
VL: QIVLTQSPAIMSASPGEKVTITCSASSSVNYIHWFQQKPGTSPKLWIYSTSNLASGVPARFSGRGSGTSYSLTISRMEAEDAATYYCLQGSSYPWTFGGGTKLEIK
notes: as for B1
binding result: binds

B11: CD137 #A25 (antibody, human IgG1, V domains shown)
VH: B10 VH with D10G, T28S, R43K, I69T, A97V, V101T, S109T, V110L, S114T
VL: QIVLTQSPAIMSASLGEEITLTCSATSSVSYMHWSQQKSGTSPKLLIYTTSNLASGVPSRFSGSGSGTFYSLTISSVEAEDAADYYCHQWTTYPWTFGGGTKLEIK
notes: as for B1
binding result: binds

B14: CD137 #A16 (antibody, human IgG1, V domains shown)
VH: QVQLQQPGAELVKPGASVKLSCKASGYTFTNFWINWVKQRPGQALEWIGNIYPGNDNTNYNGNFKTKATLTVDRSSSTAYMHLSSLTSKDSAVYYCARGQLGLDYWGQGTTLTVSS
VL: DILLTQSPAILSVSPGERVSFSCRASQNIGTTIHWYHQRTNGSPRLLIKFASESISGIPSRFSGSGSGTDFTLSINSVESEDFADYYCQQSNSWPFTFGSGTKLEIK
notes: as for B1
binding result: binds

Other lines, results leading:

binding result: binds
B12: CD137 #A27 (antibody, human IgG1, V domains shown)
VH: QVQLQQSGAELTRPGASVKLSCKASGYTFTNYWIQWIKQRPGQGLEWIGTIYPENGDTRYTQKFKGKATLTADKSSSTAYMQLSSLASEDSAVYYCARGLLEGAHYWGQGTTLTVSS
VL: DILLTQSPAILSVSPGERVSFSCRASQSIGASIHWYQQRTNGSPRLLIKFSSESISGIPSRFSGSGSGTDFTLTINSVESEDIADYYCQQTNSWPTAFGGGTKLEMK
notes: as for B1

binding result: binds
B13: CD137 #B7 (antibody, human IgG1, V domains shown)
VH: EVQLQESGPSLVKPSQTLSLTCSVTGDSITSGYWNWIRKFPGNKLEFMGYITYSGSTYYNPSLKSRISITRDTSRNQFYLQVNSVTTEDTATYFCTRYYYYGSTYYAMDYWGQGTSVTVSS
VL: NIVLTQSPASLAVSLGQRATISCRVSESVDSYGNSFMHWFQQKPGQSPKLLIYLASNLESGVPARFSGSGSRTDFTLTIDPVEADDAATYYCQQNIEDPPTFGGGTKLEIK
notes: as for B1

binding result: binds
B15: CD137 #B1 (antibody, human IgG1, V domains shown)
VH: B14 VH
VL: B14 VL
notes: as for B1

binding result: binds
B16: CD137 #B2 (antibody, human IgG1, V domains shown)
VH: B14 VH with A44G, D56T, N57G, G62E, N63R, R74I, H82R, K89E
VL: B14 VL with N28I, H34Q, H37Q, F50Y, I55L, S77N, F83I, N92H
notes: as for B1

binding result: binds
B17: CD137 #B13 (antibody, human IgG1, V domains shown)
VH: B14 VH
VL: B14 VL
notes: as for B1

binding result: binds
B18: CD137 #A17 (antibody, human IgG1, V domains shown)
VH: B14 VH with T66S
VL: B14 VL with T32A
notes: as for B1

binding result: binds
B19: CD137 #A3 (antibody, human IgG1, V domains shown)
VH: DVQLQESGPGLVKPSQSLSLTCTVTGYSITSDYGWNWIRQFPGNKVEWMGYISYSGSTSYNPSLKSRISITRDTSKNQFFLQLKSVTTEDTATYYCARSDPYYGISWFAYWGQGPLVTVSA
VL: DIQMTQTTSSLSASLGDRVTISCRASQDISNFLNWYQQKPDGTVKLLIYYTSRLHSGVPSRFSGSGSGTDYSLTISNLEQEDIATYFCQQSHTLPWTFGGGTKLEIK
notes: as for B1

binding result: binds
B20: CD137 #B30 (antibody, human IgG1, V domains shown)
VH: QVQLQQSGPQLIRPGASVKISCKASGYSFTGYWIHWVKQRPGQGLEWIGMIDPSDSETRLNQKFKDKATLTVDKSSTTAYMQLSSPTSEDSAVFYCARYRNYGYDGFAHWGQGTLVTVSA
VL: DIVMTQSPSSLTVTAGEKVTMSCKSSQSLLNSGNEKNYLAWYQQKPGQPPKLLIYWASTRESGVPDRFTGSGSGTDFTLTISSVQTEDLAVYHCQNDYSLPLTFGAGTKLELK
notes: as for B1

binding result: binds
B21: CD137 #B31 (antibody, human IgG1, V domains shown)
VH: B20 VH
VL: B20 VL
notes: as for B1

binding result: binds
B22: CD137 #A42 (antibody, V domains shown)
VH: QVQLQQSGPGLVKPSQTLSLTCAISGDSVSSNSAAWNWIRQSPSRGLEWLGRTYYRSNWYNDYAVSVESRITIKPDTSKNQFSLQLNSVTPEDTAVYYCARMDSGTYLDAFDIWGQGTMVTVSS
VL: EIVMTQSPATLSVSPGERATLSCRASQSVGRNLAWYQQKPGQTPRLLIYGASTRATGIPAIFSGSGSGTEFTLTISSLQSEDFAVYYCQQYNYWPPFTFAQGTKLEIK
notes: as for B1

binding result: binds
B23: CD137 #A39 (antibody, human IgG1, V domains shown)
VH: QVQLQQSGAELMKPGSSVKLSCKAPGYKFTDYWIEWVKQRPGHGLDWIGNILPGTINTNSNENFKGKATFTADTSSNTAYMQLSSLTSEDSAVYYCARRSLEYYFDYWGQGTTLTVSS
VL: DIVVTQSPASLAVSLGQRATISCRASQSVSTSRYSYMHWYQQKPGQPPRLLINYASNLESGVPARFSGSGSGTDFTLNIHPVEEEDTATYYCQHTWEIPWTFGGGTKLEIK
notes: as for B1

binding result: binds
B24: CD137 #A26 (antibody, human IgG1, V domains shown)
VH: EVQLQESGPSLVKPSQTLSLTCSVTGDSITSGYWNWNRKFPGNKFEYMGYISYSDSAYYNPSLKSRISITRDTSKNQYYLQLNSVTTEDTATYYCTRWGIPFAFWGQGTLVTVSA
VL: DIKMTQSPSSMYASLGERVTITCKASQDIDSYLYWFQQKPGKSPETLIYHANRLVDGVPSRFSGSGSGQDYSLTISSLEYEDMGIYYCLQYDEFPYTFGGGTKLEIK
notes: as for B1

binding result: binds
B25: CD137 #B4 (antibody, human IgG1, V domains shown)
VH: DVQLQESGPGLVKPSQSLSLTCTVTGYSITSDYAWNWIRQFPGNRLEWMGYISYSGSTSYNPSLKSRISITRDTSKNQFFLQLNSVTTEDTATYFCARWGYVLDYWGQGTSVTVSS
VL: DIVMTQSHKFMSTSEGDRVSITCKASQDVSTAVAWYQQKPGQSPKLLIYWASTRHTGVPDRFRGSGSGTDYTLTISSVQAEDLALYFCQQHYFTPYTFGGGTKLEIK
notes: as for B1
